Measured values published in patent US20250101129A1, “AFFINITY SUBSTANCE, COMPOUND, AND ANTIBODY AND THEIR SALTS” (Ajinomoto Co., Inc., priority 2022, published 2025).

Key:
[1] = target: EGFR on A-431 cells (EGFR-positive) (UniProt P00533); assay: flow cytometry on A-431 cells, Alexa Fluor 488 anti-human IgG secondary antibody
[2] = target: Recombinant human PD-1-Fc (R&D Systems), biotinylated (human) (UniProt Q15116); assay: SPR Biacore T200, biotinylated human PD-1-Fc on Biotin CAPture chip, antibody as analyte, single cycle kinetics, 1:1 model
Chain of Recombinant human PD-1-Fc (R&D Systems), biotinylated (human) (Q15116 25-167 limits assumed): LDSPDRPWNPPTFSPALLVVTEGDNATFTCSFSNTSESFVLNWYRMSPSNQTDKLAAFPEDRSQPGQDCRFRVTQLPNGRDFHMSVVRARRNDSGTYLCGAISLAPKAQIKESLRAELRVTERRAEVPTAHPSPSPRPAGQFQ

[3] = target: Biotinylated recombinant human FcRn (Immunitrack) (human) (UniProt P55899); assay: SPR Biacore T200, biotinylated human FcRn on chip SA, association at pH 6.0, single cycle kinetics, 1:1 model; dissociated at pH 7.4
[4] = target: EGFR on A-431 cells (EGFR-positive) (UniProt P00533); assay: flow cytometry on A431 (EGFR+) cells, fraction of cells in the positive gate, x axis EGFR-BL-1H, Alexa Fluor 488 anti-human IgG secondary antibody
[5] = target: HER2 on SKBR-3 cells (HER2-positive) (UniProt P04626); assay: flow cytometry on SKBR3 (HER2+) cells, fraction of cells in the positive gate, x axis HER2-BL-1H, Alexa Fluor 488 anti-human IgG secondary antibody
[6] = target: PD-1 on CD3-activated human T cells (PD-1-positive) (human) (UniProt Q15116); assay: flow cytometry on CD3-activated human T cells (PD-1+), fraction of cells in the positive gate, x axis PD-1-BL-1H, Alexa Fluor 488 anti-human IgG secondary antibody
Chain of PD-1 on CD3-activated human T cells (PD-1-positive) (human) (Q15116 25-288): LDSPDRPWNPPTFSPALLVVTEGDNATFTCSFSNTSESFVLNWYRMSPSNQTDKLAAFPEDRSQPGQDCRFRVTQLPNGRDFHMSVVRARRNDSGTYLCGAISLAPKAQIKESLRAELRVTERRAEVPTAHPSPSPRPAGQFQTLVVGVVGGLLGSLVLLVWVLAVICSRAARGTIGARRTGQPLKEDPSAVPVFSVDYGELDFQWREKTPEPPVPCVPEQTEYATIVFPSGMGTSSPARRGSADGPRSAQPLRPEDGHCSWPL

[7] = target: Recombinant human EGFR-Fc (R&D Systems), biotinylated (human) (UniProt P00533); assay: SPR Biacore T200, biotinylated human EGFR-Fc on Biotin CAPture chip, antibody as analyte, single cycle kinetics, 1:1 model
[8] = target: EGFR on A-431 cells (EGFR-positive) (UniProt P00533); assay: flow cytometry, primary antibody then Alexa Fluor 488 goat anti-human IgG (H+L), A-431 cells; histogram peak at about 10^5, gate from a little above 10^4
[9] = target: HER2 on SKBR-3 cells (HER2-positive) (UniProt P04626); assay: flow cytometry, primary antibody then Alexa Fluor 488 goat anti-human IgG (H+L), SKBR-3 cells; histogram peak between 10^3 and 10^4, gate from a little below 10^3
[10] = target: Recombinant human HER2-Fc (R&D Systems), biotinylated (human) (UniProt P04626); assay: SPR Biacore T200, biotinylated human HER2-Fc on Biotin CAPture chip, antibody as analyte, single cycle kinetics, 1:1 model
[11] = target: Recombinant human HER2-Fc (R&D Systems), biotinylated (human) (UniProt P04626); assay: SPR (Biacore T200), single cycle kinetics, ligand biotinylated HER2-Fc on Biotin CAPture chip, HBS-EP+, 1:1 binding model
[12] = target: EGFR on A-431 cells (EGFR-positive) (UniProt P00533); assay: flow cytometry, primary antibody then Alexa Fluor 488 goat anti-human IgG (H+L), A-431 cells; histogram peak a little above 10^5, gate from a little above 10^4

Row | percent of cells with fluorescence [1] [%] | Kd [2] [nM] | Kd [3] [nM] | Positive cell (%) [4] [%] | Positive cell (%) [5] [%] | Positive cell (%) [6] [%] | Kd [7] [nM] | percent of cells in the positive gate [8] [%] | percent of cells in the positive gate [9] [%] | Kd [10] [pM] | Kd [11] [pM] | percent of cells in the positive gate [12] [%] | Substance
1 | > 98 | 1.1 | 2.4 | 98.9 | 97.2 | 21.4 |  |  |  |  |  |  | Tri-specific antibody (Pembrolizumab Fab-Cetuximab-Trastuzumab Fab) (M-2)
2 | > 98 |  | 2.6 |  |  |  | 0.3 | 98.2 | 97.3 |  |  |  | DAR1 bi-specific antibody (Cetuximab-Trastuzumab Fab) (M-3) (bispecific antibody)
3 | > 98 |  | 2.4 |  |  |  |  |  | 97.9 | < 1.9 | < 1.9 | 99.6 | DAR1 bi-specific antibody (Trastuzumab-Cetuximab Fab) (M-4) (bispecific antibody)
